What was measured:
[1] = cited from earlier work
[2] = biological target: T1, human neuromedin U receptor 1 (human, UniProt Q9HB89 24-426); assay: cell-based or functional assay
T1 sequence (looked up): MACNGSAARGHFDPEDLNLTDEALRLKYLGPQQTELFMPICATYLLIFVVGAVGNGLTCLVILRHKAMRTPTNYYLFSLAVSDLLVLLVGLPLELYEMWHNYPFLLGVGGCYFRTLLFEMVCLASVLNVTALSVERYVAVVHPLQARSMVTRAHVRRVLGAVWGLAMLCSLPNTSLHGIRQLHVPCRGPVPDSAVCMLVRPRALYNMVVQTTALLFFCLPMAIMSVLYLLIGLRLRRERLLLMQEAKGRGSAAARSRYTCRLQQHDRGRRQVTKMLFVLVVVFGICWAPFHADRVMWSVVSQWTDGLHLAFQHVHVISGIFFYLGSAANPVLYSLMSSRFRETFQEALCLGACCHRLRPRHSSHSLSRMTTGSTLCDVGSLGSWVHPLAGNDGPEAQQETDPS

[3] = biological target: human neuromedin U receptor 2 (human, UniProt Q9GZQ4 1-415); assay: cell-based or functional assay
Sequence of human neuromedin U receptor 2 (Q9GZQ4 whole entry): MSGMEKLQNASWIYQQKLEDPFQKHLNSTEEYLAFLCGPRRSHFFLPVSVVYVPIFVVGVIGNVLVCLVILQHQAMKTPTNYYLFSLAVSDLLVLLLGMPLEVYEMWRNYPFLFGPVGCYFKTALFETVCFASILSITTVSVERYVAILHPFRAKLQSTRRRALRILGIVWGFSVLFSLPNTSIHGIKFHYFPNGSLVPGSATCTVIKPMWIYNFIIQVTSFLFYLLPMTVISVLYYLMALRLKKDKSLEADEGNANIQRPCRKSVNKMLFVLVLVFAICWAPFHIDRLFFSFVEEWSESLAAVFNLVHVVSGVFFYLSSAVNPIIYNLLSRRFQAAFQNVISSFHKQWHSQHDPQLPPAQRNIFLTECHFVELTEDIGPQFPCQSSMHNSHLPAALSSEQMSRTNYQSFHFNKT

Molecule	half-life after subcutaneous injection [1]	EC50 (activity as measured in Example 3) [2] [nM]	EC50 (activity as measured in Example 3) [3] [nM]
Neuromedin U [native NMU]	less than 5 min		
EEEXXXXXXXXXXXXXYFLXXPRG (HELM PEPTIDE1{[O=C(O)CCCCCCCCCCCCCCCCC(=O)[*:2]].[gGlu].[gGlu].[gGlu].[Sar].[Sar].[Sar].[Sar].[Sar].[Sar].[Sar].[Sar].[Sar].[Sar].[Sar].[Sar].[O=C(CN1CCN(CCN[*:1])CC1)[*:2]].Y.F.L.[Nle].[Orn].P.R.G.[am]}$$$$V2.0; SMILES CCCC[C@H](NC(=O)[C@H](CC(C)C)NC(=O)[C@H](Cc1ccccc1)NC(=O)[C@H](Cc1ccc(O)cc1)NC(=O)CN1CCN(CCNC(=O)CN(C)C(=O)CN(C)C(=O)CN(C)C(=O)CN(C)C(=O)CN(C)C(=O)CN(C)C(=O)CN(C)C(=O)CN(C)C(=O)CN(C)C(=O)CN(C)C(=O)CN(C)C(=O)CN(C)C(=O)CC[C@H](NC(=O)CC[C@H](NC(=O)CC[C@H](NC(=O)CCCCCCCCCCCCCCCCC(=O)O)C(=O)O)C(=O)O)C(=O)O)CC1)C(=O)N[C@@H](CCCN)C(=O)N1CCC[C@H]1C(=O)N[C@@H](CCCNC(=N)N)C(=O)NCC(N)=O) [C18DA-gGlu3-Sar12-AEPipAc-Tyr-Phe-Leu-Nle-Orn-Pro-Arg-Gly-NH2]		68	2.1
